Test results taken from the RNAGym collection of RNA variant scans (doi:10.7554/elife.80360).

B1: HDV Ribozyme (parent)
chain: GGCCGGCAUGGUCCCAGCCUCCUCGCUGGCGCCGGCUGGGCAACAUUCCGAGGGGACCGUCCCCUCGGUAAUGGCGAAUGGGACCCA

Variants of: B1
Assay: self-cleavage, relative activity (ratio to wild type); higher = more cleavage; co-transcriptional

Variant	self-cleavage
C18G C48U	0
C18A C63G	0.0791
G17U A78G	0.201
C18A U65A	0.0723
C18A U65C	0.101
G17U G40C	0.189
C18G C21A	0
C18G U27C	0.237
C18G C19U	0.0898
G17U G67A	0.564
G17U A71U	0.443
G17U C48A	0.538
C18A C41U	0.0339
G17U G28C	0.0652
C18G C49G	0.0723
C18G C49A	0.0791
C18G C58G	0
C18G C58U	0.0978
C18U A70C	0.514
C18U A70G	0.752
C18U A70U	0.658
C18G A70C	0
G17C U60C	0.208
C18A C30G	0.0573

Variant	self-cleavage
C18A C30A	0.141
C18G C86A	0
C18A U72A	0.0504
G17U U20C	0.0573
G17U U20A	0.0378
C18A G35A	0.199
C18A G67A	0.163
G17U C63A	0.517
C18A C58A	0.285
G17U C26A	0.491
C18G U79A	0.0615
C18G G53C	0.227
C18G G53A	0.175
C18G C41U	0.161
G17U C41G	0.0462
C18G G34A	0.136
C18G G81U	0
G17U G50C	0.496
C18U A51C	0.901
C18G G54U	0.0563
C18A C48U	0.0627
G17U C18G	0.095
C18A C24U	0.104
C18A C24A	0.163

Variant	self-cleavage
C18G C62U	0.308
G17U C86U	0.612
C18G G35C	0.104
G17U A70U	0.574
C18G G76C	0.147
G17U U47C	0.298
C18G G73C	0.104
C18G G59U	0.312
C18G G59A	0.128
G17U G38U	0.0369
C18A G53U	0.117
C18A G53C	0.214
C18G U47A	0
C18G C63A	0.145
C18A C33G	0
G17U C62U	0.602
G17U C62G	0.492
C18G A71U	0.0723
C18G A71C	0.172
C18A C62U	0.264
G17U U46C	0.356
C18A G73C	0.0396
C18U A45U	0.361
C18A C64A	0.136

Variant	self-cleavage
C18G C84G	0.237
C18G C84U	0.0386
C18A C85A	0.224
C18A C85U	0.158
C18A G52C	0.0346
C18G C61U	0.0519
G17U C58U	0.708
G17U C58G	0.277
C18G G31U	0.0396
C18G C30U	0.0386
C18G C30A	0.0739
G17U A87U	0.548
G17U A87G	0.499
C18A G38C	0.145
C18A G38U	0.0652
C18G G52U	0.203
G17U A51C	0.831
G17U C21G	0
G17U C21A	0.0339
C18A G40A	0.0426
C18G C57A	0.0536
C18A U46A	0.0923
G17U C75A	0.198
C18G C22U	0.0504

Variant	self-cleavage
G17U U72C	0.142
G17U G68A	0.478
G17U G68C	0.542
G17U C61U	0.471
C18G C85U	0.095
C18G C85G	0
C18G C85A	0.0554
C18A U47A	0.0692
C18A G54C	0.189
C18A G82A	0.149
C18A G82C	0.122
C18G A45G	0.0639
C18A C61U	0.237
G17U C49A	0.614
C18A G76A	0.0678
C18U A83C	0.227
C18G U20A	0.161
C18G U37G	0.0692
C18G U37C	0.256
C18A A77U	0
G17U C30U	0.716
C18G G82C	0
G17U C85G	0.554
G17U C85U	0.614

Variant	self-cleavage
G17U C85A	0.538
C18A G31C	0.163
G17U C64U	0.521
C18G G29C	0.939
C18G U65G	0.115
C18A U20A	0.0875
C18A G25U	0.162
G17U C32A	0.136
G17U C32G	0.0386
C18G U69G	0.128
C18G U69A	0.0489
C18G U69C	0.151
C18A U23G	0.155
C18A U23A	0.122
G17U A83G	0.405
G17U A83C	0.219
C18A C75A	0.0906
G17U G31U	0.0723
C18G C66G	0.0665
G17U G76A	0.73
C18A C32U	0.145
C18A C32G	0.0875
G17C U47G	0.217
G17C U47C	0.519

Variant	self-cleavage
C18A A83G	0.0443
G17U A77U	0.104
G17U A77G	0.0536
C18A A71U	0
G17U G53U	0.42
G17U G53C	0.354
G17U G53A	0.641
G17U A56U	0.533
C18G G55C	0.185
C18G G50C	0
C18G C26U	0.388
C18A U69C	0.138
C18G C75G	0.229
C18G C33G	0.119
C18G G39C	0.0755
C18U A87C	0.692
G17U G52U	0.517
C18A A42U	0.0437
C18A A42C	0.0707
G17U U37C	0.612
G17U G25A	0.0489
G17U G25C	0.0811
C18A G68U	0.147
